From US20260001928A1 (CORTERIA PHARMACEUTICALS, priority 2022, published 2026) come the findings set out here.

In this assay the target is human corticotropin-releasing factor 2a (CRF2a receptor) (human), Q13324. The assay is described as follows: cell-based or functional assay.

*1 amine or outer side, *2 acyl side, *3 side chain or, on linkers, in order; H or OH if unused. Where no end group is shown, it is not given here. Side-chain parts run from the residue outwards. [ ]: non-standard residue; d: D form. The star is where a group is joined. C20 diacid = O=C(O)CCCCCCCCCCCCCCCCCCC(=O)*; C16 diacid = O=C(O)CCCCCCCCCCCCCCC(=O)*; γGlu = O=C(O)[C@H](CCC(=O)[*:2])N[*:1]; NMeI = CC[C@H](C)[C@H](NC)C(=O)O; Pentanoyl = CCCCC(=O)*; AEEA = NCCOCCOCC(=O)O; Aib = CC(C)(N)C(=O)O

Chain of human corticotropin-releasing factor 2a (CRF2a receptor) (human), Q13324 (Q13324 20-411): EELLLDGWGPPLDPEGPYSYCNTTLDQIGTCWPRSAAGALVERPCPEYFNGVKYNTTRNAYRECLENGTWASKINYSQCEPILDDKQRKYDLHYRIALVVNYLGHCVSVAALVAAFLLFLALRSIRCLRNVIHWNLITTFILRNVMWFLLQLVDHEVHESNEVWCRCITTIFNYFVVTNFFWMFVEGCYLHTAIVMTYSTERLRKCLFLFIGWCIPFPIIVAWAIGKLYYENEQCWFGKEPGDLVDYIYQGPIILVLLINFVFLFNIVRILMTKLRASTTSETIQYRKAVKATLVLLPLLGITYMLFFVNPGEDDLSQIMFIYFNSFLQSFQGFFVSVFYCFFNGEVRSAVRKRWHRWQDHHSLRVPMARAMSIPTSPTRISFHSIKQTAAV

B1: SEQ ID NO 229 (peptide)
peptide: [NMeI]VLSLD[dV]PIGLK([γGlu-C20 diacid])KILLEQEKQKKQREQAETN[Aib]QILAQV-NH2
modifications: N-terminus assumed
SMILES: CC[C@H](C)[C@H](NC)C(=O)N[C@H](C(=O)N[C@@H](CC(C)C)C(=O)N[C@@H](CO)C(=O)N[C@@H](CC(C)C)C(=O)N[C@@H](CC(=O)O)C(=O)N[C@@H](C(=O)N1CCC[C@H]1C(=O)N[C@H](C(=O)NCC(=O)N[C@@H](CC(C)C)C(=O)N[C@@H](CCCCNC(=O)CC[C@H](NC(=O)CCCCCCCCCCCCCCCCCCC(=O)O)C(=O)O)C(=O)N[C@@H](CCCCN)C(=O)N[C@H](C(=O)N[C@@H](CC(C)C)C(=O)N[C@@H](CC(C)C)C(=O)N[C@@H](CCC(=O)O)C(=O)N[C@@H](CCC(N)=O)C(=O)N[C@@H](CCC(=O)O)C(=O)N[C@@H](CCCCN)C(=O)N[C@@H](CCC(N)=O)C(=O)N[C@@H](CCCCN)C(=O)N[C@@H](CCCCN)C(=O)N[C@@H](CCC(N)=O)C(=O)N[C@@H](CCCNC(=N)N)C(=O)N[C@@H](CCC(=O)O)C(=O)N[C@@H](CCC(N)=O)C(=O)N[C@@H](C)C(=O)N[C@@H](CCC(=O)O)C(=O)N[C@H](C(=O)N[C@@H](CC(N)=O)C(=O)NC(C)(C)C(=O)N[C@@H](CCC(N)=O)C(=O)N[C@H](C(=O)N[C@@H](CC(C)C)C(=O)N[C@@H](C)C(=O)N[C@@H](CCC(N)=O)C(=O)N[C@H](C(N)=O)C(C)C)[C@@H](C)CC)[C@@H](C)O)[C@@H](C)CC)[C@@H](C)CC)C(C)C)C(C)C
In turn, B1 had an EC50 [nM] (cAMP) of 0.11 nM.

B2: SEQ ID NO 228 (peptide)
peptide: Pentanoyl-VLSLD[dV]PIGLK([γGlu-C20 diacid])KILLEQEKQKKQREQAETN[Aib]QILAQV-NH2
SMILES: CCCCC(=O)N[C@H](C(=O)N[C@@H](CC(C)C)C(=O)N[C@@H](CO)C(=O)N[C@@H](CC(C)C)C(=O)N[C@@H](CC(=O)O)C(=O)N[C@@H](C(=O)N1CCC[C@H]1C(=O)N[C@H](C(=O)NCC(=O)N[C@@H](CC(C)C)C(=O)N[C@@H](CCCCNC(=O)CC[C@H](NC(=O)CCCCCCCCCCCCCCCCCCC(=O)O)C(=O)O)C(=O)N[C@@H](CCCCN)C(=O)N[C@H](C(=O)N[C@@H](CC(C)C)C(=O)N[C@@H](CC(C)C)C(=O)N[C@@H](CCC(=O)O)C(=O)N[C@@H](CCC(N)=O)C(=O)N[C@@H](CCC(=O)O)C(=O)N[C@@H](CCCCN)C(=O)N[C@@H](CCC(N)=O)C(=O)N[C@@H](CCCCN)C(=O)N[C@@H](CCCCN)C(=O)N[C@@H](CCC(N)=O)C(=O)N[C@@H](CCCNC(=N)N)C(=O)N[C@@H](CCC(=O)O)C(=O)N[C@@H](CCC(N)=O)C(=O)N[C@@H](C)C(=O)N[C@@H](CCC(=O)O)C(=O)N[C@H](C(=O)N[C@@H](CC(N)=O)C(=O)NC(C)(C)C(=O)N[C@@H](CCC(N)=O)C(=O)N[C@H](C(=O)N[C@@H](CC(C)C)C(=O)N[C@@H](C)C(=O)N[C@@H](CCC(N)=O)C(=O)N[C@H](C(N)=O)C(C)C)[C@@H](C)CC)[C@@H](C)O)[C@@H](C)CC)[C@@H](C)CC)C(C)C)C(C)C
B2: the EC50 [nM] (cAMP) turned out to be 0.19 nM.

B3: SEQ ID NO 232 (peptide)
peptide: Ac-IVLSLD[dV]PIKLK([AEEA-γGlu-C20 diacid])KILLEQEKQKAQREQAETN[Aib]QILAQV-NH2
SMILES: CC[C@H](C)[C@H](NC(C)=O)C(=O)N[C@H](C(=O)N[C@@H](CC(C)C)C(=O)N[C@@H](CO)C(=O)N[C@@H](CC(C)C)C(=O)N[C@@H](CC(=O)O)C(=O)N[C@@H](C(=O)N1CCC[C@H]1C(=O)N[C@H](C(=O)N[C@@H](CCCCN)C(=O)N[C@@H](CC(C)C)C(=O)N[C@@H](CCCCNC(=O)COCCOCCNC(=O)CC[C@H](NC(=O)CCCCCCCCCCCCCCCCCCC(=O)O)C(=O)O)C(=O)N[C@@H](CCCCN)C(=O)N[C@H](C(=O)N[C@@H](CC(C)C)C(=O)N[C@@H](CC(C)C)C(=O)N[C@@H](CCC(=O)O)C(=O)N[C@@H](CCC(N)=O)C(=O)N[C@@H](CCC(=O)O)C(=O)N[C@@H](CCCCN)C(=O)N[C@@H](CCC(N)=O)C(=O)N[C@@H](CCCCN)C(=O)N[C@@H](C)C(=O)N[C@@H](CCC(N)=O)C(=O)N[C@@H](CCCNC(=N)N)C(=O)N[C@@H](CCC(=O)O)C(=O)N[C@@H](CCC(N)=O)C(=O)N[C@@H](C)C(=O)N[C@@H](CCC(=O)O)C(=O)N[C@H](C(=O)N[C@@H](CC(N)=O)C(=O)NC(C)(C)C(=O)N[C@@H](CCC(N)=O)C(=O)N[C@H](C(=O)N[C@@H](CC(C)C)C(=O)N[C@@H](C)C(=O)N[C@@H](CCC(N)=O)C(=O)N[C@H](C(N)=O)C(C)C)[C@@H](C)CC)[C@@H](C)O)[C@@H](C)CC)[C@@H](C)CC)C(C)C)C(C)C
In turn, B3 displayed an EC50 [nM] (cAMP) of 0.12 nM.

B4: SEQ ID NO 230 (peptide)
peptide: Ac-IVLSLD[dV]PIKLK([AEEA-γGlu-C20 diacid])KILLEQEKQKKQREQAETN[Aib]QILAQV-NH2
SMILES: CC[C@H](C)[C@H](NC(C)=O)C(=O)N[C@H](C(=O)N[C@@H](CC(C)C)C(=O)N[C@@H](CO)C(=O)N[C@@H](CC(C)C)C(=O)N[C@@H](CC(=O)O)C(=O)N[C@@H](C(=O)N1CCC[C@H]1C(=O)N[C@H](C(=O)N[C@@H](CCCCN)C(=O)N[C@@H](CC(C)C)C(=O)N[C@@H](CCCCNC(=O)COCCOCCNC(=O)CC[C@H](NC(=O)CCCCCCCCCCCCCCCCCCC(=O)O)C(=O)O)C(=O)N[C@@H](CCCCN)C(=O)N[C@H](C(=O)N[C@@H](CC(C)C)C(=O)N[C@@H](CC(C)C)C(=O)N[C@@H](CCC(=O)O)C(=O)N[C@@H](CCC(N)=O)C(=O)N[C@@H](CCC(=O)O)C(=O)N[C@@H](CCCCN)C(=O)N[C@@H](CCC(N)=O)C(=O)N[C@@H](CCCCN)C(=O)N[C@@H](CCCCN)C(=O)N[C@@H](CCC(N)=O)C(=O)N[C@@H](CCCNC(=N)N)C(=O)N[C@@H](CCC(=O)O)C(=O)N[C@@H](CCC(N)=O)C(=O)N[C@@H](C)C(=O)N[C@@H](CCC(=O)O)C(=O)N[C@H](C(=O)N[C@@H](CC(N)=O)C(=O)NC(C)(C)C(=O)N[C@@H](CCC(N)=O)C(=O)N[C@H](C(=O)N[C@@H](CC(C)C)C(=O)N[C@@H](C)C(=O)N[C@@H](CCC(N)=O)C(=O)N[C@H](C(N)=O)C(C)C)[C@@H](C)CC)[C@@H](C)O)[C@@H](C)CC)[C@@H](C)CC)C(C)C)C(C)C
B4: the EC50 [nM] (cAMP) was 0.16 nM.

B5: SEQ ID NO 13 (peptide)
peptide: H-IVLSLD[dV]PIKLK([γGlu-C16 diacid])QILLKQERQKKQREQAEKNVQILEQV-NH2
SMILES: CC[C@H](C)[C@H](N)C(=O)N[C@H](C(=O)N[C@@H](CC(C)C)C(=O)N[C@@H](CO)C(=O)N[C@@H](CC(C)C)C(=O)N[C@@H](CC(=O)O)C(=O)N[C@@H](C(=O)N1CCC[C@H]1C(=O)N[C@H](C(=O)N[C@@H](CCCCN)C(=O)N[C@@H](CC(C)C)C(=O)N[C@@H](CCCCNC(=O)CC[C@H](NC(=O)CCCCCCCCCCCCCCC(=O)O)C(=O)O)C(=O)N[C@@H](CCC(N)=O)C(=O)N[C@H](C(=O)N[C@@H](CC(C)C)C(=O)N[C@@H](CC(C)C)C(=O)N[C@@H](CCCCN)C(=O)N[C@@H](CCC(N)=O)C(=O)N[C@@H](CCC(=O)O)C(=O)N[C@@H](CCCNC(=N)N)C(=O)N[C@@H](CCC(N)=O)C(=O)N[C@@H](CCCCN)C(=O)N[C@@H](CCCCN)C(=O)N[C@@H](CCC(N)=O)C(=O)N[C@@H](CCCNC(=N)N)C(=O)N[C@@H](CCC(=O)O)C(=O)N[C@@H](CCC(N)=O)C(=O)N[C@@H](C)C(=O)N[C@@H](CCC(=O)O)C(=O)N[C@@H](CCCCN)C(=O)N[C@@H](CC(N)=O)C(=O)N[C@H](C(=O)N[C@@H](CCC(N)=O)C(=O)N[C@H](C(=O)N[C@@H](CC(C)C)C(=O)N[C@@H](CCC(=O)O)C(=O)N[C@@H](CCC(N)=O)C(=O)N[C@H](C(N)=O)C(C)C)[C@@H](C)CC)C(C)C)[C@@H](C)CC)[C@@H](C)CC)C(C)C)C(C)C
Consider B5, for which the EC50 [nM] (cAMP) stood at 0.15 nM.

B6: SEQ ID NO 231 (peptide)
peptide: Ac-IVLSLD[dV]PIKLK([AEEA-γGlu-C20 diacid])KILLEQEKQKEQREQAETN[Aib]QILAQV-NH2
SMILES: CC[C@H](C)[C@H](NC(C)=O)C(=O)N[C@H](C(=O)N[C@@H](CC(C)C)C(=O)N[C@@H](CO)C(=O)N[C@@H](CC(C)C)C(=O)N[C@@H](CC(=O)O)C(=O)N[C@@H](C(=O)N1CCC[C@H]1C(=O)N[C@H](C(=O)N[C@@H](CCCCN)C(=O)N[C@@H](CC(C)C)C(=O)N[C@@H](CCCCNC(=O)COCCOCCNC(=O)CC[C@H](NC(=O)CCCCCCCCCCCCCCCCCCC(=O)O)C(=O)O)C(=O)N[C@@H](CCCCN)C(=O)N[C@H](C(=O)N[C@@H](CC(C)C)C(=O)N[C@@H](CC(C)C)C(=O)N[C@@H](CCC(=O)O)C(=O)N[C@@H](CCC(N)=O)C(=O)N[C@@H](CCC(=O)O)C(=O)N[C@@H](CCCCN)C(=O)N[C@@H](CCC(N)=O)C(=O)N[C@@H](CCCCN)C(=O)N[C@@H](CCC(=O)O)C(=O)N[C@@H](CCC(N)=O)C(=O)N[C@@H](CCCNC(=N)N)C(=O)N[C@@H](CCC(=O)O)C(=O)N[C@@H](CCC(N)=O)C(=O)N[C@@H](C)C(=O)N[C@@H](CCC(=O)O)C(=O)N[C@H](C(=O)N[C@@H](CC(N)=O)C(=O)NC(C)(C)C(=O)N[C@@H](CCC(N)=O)C(=O)N[C@H](C(=O)N[C@@H](CC(C)C)C(=O)N[C@@H](C)C(=O)N[C@@H](CCC(N)=O)C(=O)N[C@H](C(N)=O)C(C)C)[C@@H](C)CC)[C@@H](C)O)[C@@H](C)CC)[C@@H](C)CC)C(C)C)C(C)C
B6 yielded an EC50 [nM] (cAMP) of 0.28 nM.
